Details of the series: species or system male Sprague-Dawley rats. The conditions noted are these: rat, in vivo, iv. As to the method:
The metabolite profiling in the biological samples from rats dosed with [^14C]-peginesatide was performed by high-performance liquid chromatography (HPLC). The radiolabeled materials in the samples of plasma and aqueous homoge-nates of tissues and feces were extracted with five volumes of methanol containing 0.1% of trifluoroacetic acid (TFA), mixed and centrifuged at 1500g at 4°C for l0 min to obtain supernatant. A portion of the supernatant was counted to estimate the extraction recovery of [^14C]-peginesatide and its related compounds in the biological samples. The rest of the supernatant was evaporated to dryness under a nitrogen gas stream. The residue was re-dissolved in a small volume of equal parts mobile phase [MP(A)] and B [MP(B)] for chromatographic analysis. The HPLC system (Simadzu, Kyoto, Japan) consisted of a LC-lOADvp pump, a CTO-lOACvp column oven, an SPD-lOAvp UV detector, and an SCL-lOAvp system controller. […] The flow rate was 0.5mL/min, and the peaks were monitored by a UV absorption detector at 215 run. […] The effluentwas collected into 0.5mL size fractions, followed by counting of the radioactivity (LSC). […]
Noncompartmental PK parameters for peginesatide and metabolites were generated using WinNonlin ver. […] Apparent terminal half-life (t1/2) was calculated as In2/λz. The AUC0-inf was calculated as the sum of AUC0-t and Cobs/λz, where Cobs, was the actual concentration at the time of the last quantifiable concentration. […] The mean residence time (MRT) was calculated as the ratio of AUMC0-inf/AUC0-inf, where AUMC0-inf was the area under the first moment curve from the time zero to infinity. […]
The plasma metabolic profile of [^14C]-peginesatide was determined by the HPLC analysis described above and measurement of radioactivity using LSC. […] The moieties detected were designated as peginesatide or mono-PEG (peginesatide with one PEG chain), with the remaining radioactivity designated as “Other” The classification of Other is anticipated to encompass smaller PEGylated-peptide and peptide/ amino acid components. […]

In general, Tmax refers to the time at which the peak concentration occurs. On to Peginesatide, for which the Tmax worked out at 0.25 h, the t½α is given as 29.1 h and the t½β worked out at 110 h.
